# Laboratory results published in US20150105316A1 (TREVENA, published 2015).
# Where no end group is shown, it is not given here. [ ]: non-standard residue; d: D form. Ac6c = NC1(C(=O)O)CCCCC1; Sar = CNCC(=O)O
# T1: human angiotensin 2 type 1 receptor (human, UniProt P30556 1-359)
# T1 sequence (looked up): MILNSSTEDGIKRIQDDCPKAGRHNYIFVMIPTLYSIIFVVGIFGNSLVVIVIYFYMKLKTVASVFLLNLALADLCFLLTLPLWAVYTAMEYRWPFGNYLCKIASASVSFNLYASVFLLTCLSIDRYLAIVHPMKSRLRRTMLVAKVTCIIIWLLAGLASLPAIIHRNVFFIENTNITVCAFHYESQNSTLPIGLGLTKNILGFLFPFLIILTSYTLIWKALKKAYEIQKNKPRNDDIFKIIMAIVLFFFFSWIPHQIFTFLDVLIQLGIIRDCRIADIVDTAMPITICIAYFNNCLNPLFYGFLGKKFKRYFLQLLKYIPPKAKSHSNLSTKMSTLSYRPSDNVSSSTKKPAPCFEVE
# T2: rat angiotensin 2 type 1 receptor (rat, UniProt P25095 1-359)
# T2 sequence (looked up): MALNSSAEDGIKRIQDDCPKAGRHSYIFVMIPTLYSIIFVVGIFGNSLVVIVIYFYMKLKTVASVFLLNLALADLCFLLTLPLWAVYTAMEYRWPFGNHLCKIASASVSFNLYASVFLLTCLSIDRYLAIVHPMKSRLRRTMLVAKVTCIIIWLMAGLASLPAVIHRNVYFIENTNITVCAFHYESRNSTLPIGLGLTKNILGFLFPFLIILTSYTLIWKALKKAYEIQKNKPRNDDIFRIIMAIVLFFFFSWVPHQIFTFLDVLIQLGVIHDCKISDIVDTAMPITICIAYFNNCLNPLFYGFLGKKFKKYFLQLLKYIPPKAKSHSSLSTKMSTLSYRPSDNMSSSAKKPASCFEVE
# Legend:
# Assay in all cases: cell-based or functional assay
# [1] = molecular target: T1, human angiotensin 2 type 1 receptor
# [2] = molecular target: T2, rat angiotensin 2 type 1 receptor
# [3] = molecular target: T1, human angiotensin 2 type 1 receptor; remark: listed apart in the source
# [4] = molecular target: T2, rat angiotensin 2 type 1 receptor; remark: listed apart in the source
IP1 G-protein assay EC50 [1],IP1 G-protein assay Span [1],IP1 G-protein assay pEC50 [1],IP1 G-protein assay EC50 [2],IP1 G-protein assay pEC50 [2],beta-arrestin2 assay EC50 [3],beta-arrestin2 assay Span [3],beta-arrestin2 assay pEC50 [3],beta-arrestin2 assay EC50 [4],beta-arrestin2 assay Span [4],beta-arrestin2 assay pEC50 [4],IP1 G-protein assay Span [2],Binder
6310 nM,< 103,< 9.2,> 0.6 nM,> 9.2,> 3.2 nM,< 101,< 8.5,> 3.2 nM,< 105,< 8.5,,[Sar]RVYPHPS [SEQ ID NO: 8 (Sar-Arg-Val-Tyr-Pro-His-Pro-Ser)]
1.3 nM,< 103,< 9.2,> 0.6 nM,< 9.2,> 3.2 nM,< 101,< 8.5,3.2 nM,> 105,8.5,< 104,[Sar]RVYPHPF [SEQ ID NO: 10 (Sar-Arg-Val-Tyr-Pro-His-Pro-Phe)]
> 1.3 nM,,> 9.2,> 0.6 nM,> 9.2,> 3.2 nM,< 101,< 8.5,> 3.2 nM,< 105,< 8.5,,[Sar]RVY[Ac6c]HPT [SEQ ID NO: 14 (Sar-Arg-Val-Tyr-cyHex-His-Pro-Thr)]
5 nM,< 103,< 9.2,> 0.6 nM,< 9.2,> 3.2 nM,< 101,< 8.5,> 3.2 nM,< 105,< 8.5,< 104,[Sar]RVYPHPM [SEQ ID NO: 9 (Sar-Arg-Val-Tyr-Pro-His-Pro-Met)]
> 1.3 nM,< 103,< 9.2,> 0.6 nM,< 9.2,> 3.2 nM,< 101,< 8.5,> 3.2 nM,< 105,< 8.5,< 104,[Sar]RVY[Ac6c]HPL [SEQ ID NO: 12 (Sar-Arg-Val-Tyr-cyHex-His-Pro-Leu)]
> 1.3 nM,< 103,< 9.2,> 0.6 nM,< 9.2,> 3.2 nM,< 101,< 8.5,> 3.2 nM,< 105,< 8.5,< 104,[Sar]RVY[Ac6c]HPM [SEQ ID NO: 16 (Sar-Arg-Val-Tyr-cyHex-His-Pro-Met)]
> 1.3 nM,,> 9.2,> 0.6 nM,< 9.2,> 3.2 nM,< 101,< 8.5,> 3.2 nM,< 105,< 8.5,< 104,[Sar]RVY[Ac6c]HPS [SEQ ID NO: 15 (Sar-Arg-Val-Tyr-cyHex-His-Pro-Ser)]
< 1.3 nM,< 103,< 9.2,> 0.6 nM,< 9.2,> 3.2 nM,> 101,< 8.5,3.2 nM,< 105,8.5,> 104,[Sar]RVY[Ac6c]HPF [SEQ ID NO: 17 (Sar-Arg-Val-Tyr-cyHex-His-Pro-Phe)]
> 1.3 nM,< 103,< 9.2,> 0.6 nM,> 9.2,> 3.2 nM,< 101,< 8.5,> 3.2 nM,< 105,< 8.5,,[Sar]RVY[Ac6c]HPI [SEQ ID NO: 11 (Sar-Arg-Val-Tyr-cyHex-His-Pro-Ile)]
> 10000 nM,,> 9.2,> 0.6 nM,> 9.2,> 3.2 nM,< 101,< 8.5,> 3.2 nM,< 105,< 8.5,,[Sar]RVYPHPT [SEQ ID NO: 7 (Sar-Arg-Val-Tyr-Pro-His-Pro-Thr)]
